Experimental data: patent publication US5981229

Molecular target: PlpA-PhoA fusion protein of strain SPRU98 (Streptococcus pneumoniae; E. coli)

DsbA (from UniProt P0AEG4) (enzyme)
alkaline phosphatase activity of SPRU98 whole bacteria (activity units per mg of total protein): 138
